Assay results taken from paper PMC4535883, “A Single-Strand Annealing Protein Clamps DNA to Detect and Secure Homology”.

Assays:
[1] = molecular target: T1, Redβ (single-strand annealing protein) (bacteriophage lambda, UniProt P03698 1-261); experiment: FCS/FCCS; effective KEpstein for 30-b ssDNA, calculated as Kd/21; Buffer composition not in the material; optical tweezers at 29.2 °C; conditions: protein: recombinant; tags: StrepII (stated for the purified protein used as western blot standard); label: Atto 655 (5')
T1 sequence: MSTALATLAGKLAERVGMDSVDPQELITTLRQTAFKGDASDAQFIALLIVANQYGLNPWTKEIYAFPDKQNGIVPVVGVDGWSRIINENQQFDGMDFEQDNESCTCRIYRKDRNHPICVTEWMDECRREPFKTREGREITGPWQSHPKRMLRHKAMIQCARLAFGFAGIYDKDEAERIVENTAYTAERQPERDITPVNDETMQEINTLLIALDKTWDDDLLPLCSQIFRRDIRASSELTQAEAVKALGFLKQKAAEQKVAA

[2] = molecular target: T1, Redβ (single-strand annealing protein); experiment: FCS/FCCS; per single binding site of Redβ monomer; global fit of isodesmic growth model; Buffer composition not in the material; optical tweezers at 29.2 °C; conditions: protein: recombinant; tags: StrepII (stated for the purified protein used as western blot standard); label: Atto 655 (5')
[3] = molecular target: T1, Redβ (single-strand annealing protein); experiment: FCCS; half of ssDNA bound; about 30% bound at 100 nM; Hill coefficient close to 1; Buffer composition not in the material; optical tweezers at 29.2 °C; conditions: protein: recombinant; tags: StrepII (stated for the purified protein used as western blot standard); label: Atto 655 (5')
[4] = molecular target: T1, Redβ (single-strand annealing protein); experiment: optical tweezers; preassembled filament, 750 nM Redβ; >20% of traces >100 pN; Buffer composition not in the material; optical tweezers at 29.2 °C; conditions: protein: recombinant; tags: StrepII (stated for the purified protein used as western blot standard); 25 bp duplex, ssDNA spacers on both sides
[5] = molecular target: T1, Redβ (single-strand annealing protein); experiment: CD; filament formed by Redβ annealing; CD shift at 210-220 nm; Buffer composition not in the material; optical tweezers at 29.2 °C; conditions: protein: recombinant; tags: StrepII (stated for the purified protein used as western blot standard); blunt; strands annealed by Redβ
[6] = molecular target: T1, Redβ (single-strand annealing protein); experiment: optical tweezers; preassembled filament; unzipping forces >200 pN, step 10 ± 2 bp; Buffer composition not in the material; optical tweezers at 29.2 °C; conditions: protein: recombinant; tags: StrepII (stated for the purified protein used as western blot standard); 123 bp duplex, ssDNA spacers on both sides

ATGCCTCTCACTCGTCATCTTGTTTAGTAT (ssDNA) [ssDNA FCS 30 b]
Kd [1]: ~240 nM | Kd [2]: 5000 ± 200 nM | apparent K (half saturation) [3]: ~300 nM

B1: 25 bp high-force unzipping linker (dsDNA)
DNA 1: TGTTTAGTATGAGTCGAAATTCTTACGGCGTGTCAGAGAGGC
DNA 2: TGACAGGAAACAGCACGCCAGCCTCTCTGACACGCCGTAAGAATTCGATAGGCAGCAGATTCTCTTTTCACCTTC
modifications: 5' phosphate on overhang A
binding result [4]: binds

B2: CD 44-mer pair ssDNACD(1)+(2) (dsDNA)
DNA 1: GTAGAGTATAAGCACAGAGAGGATAGAGAACAATGGAGCGGGTGT
DNA 2: ACACCCGCTCCATTGTTCTCTATCCTCTCTGTGCTTATACTCTAC
binding result [5]: binds

B3: 123 bp high-force unzipping linker (dsDNA)
DNA 1: TGTTTAGTATGAGTCGAAATTCTTACGGCGTGTCAGAGAGGCAATGGCTTGACTTGTGGTGGATCACAGTTTGTGAGTAACGGCAAGATGCGGTAAACACTGTAATGCGAGCTTCATTGACTCGGCTTAAAGTTCCTGGT
DNA 2: TGACAGGAAACAGCACGCCAACCAGGAACTTTAAGCCGAGTCAATGAAGCTCGCATTACAGTGTTTACCGCATCTTGCCGTTACTCACAAACTGTGATCCACCACAAGTCAAGCCATTGCCTCTCTGACACGCCGTAAGAATTCGATAGGCAGCAGATTCTCTTTTCACCTTC
modifications: 5' phosphate on overhang A
binding result [6]: binds
